Residue numbers refer to the chain shown, from its start.

First the molecules themselves.
B1: aptamer ID 13 (ssRNA)
RNA: GGGAGAACUUCGCCAGAAGUUUGAAAGAAACCCAAAUUAAAGUAUGUGCGCAUACA
modifications: 2'-F at all pyrimidines
B2: aptamer ID 15 (ssRNA)
RNA: B1 RNA with A35U, A36U, U37A, U38A
modifications: 2'-F at all pyrimidines
B3: aptamer ID 49 (ssRNA)
RNA: GGGAGAACUUCGACCAGAAGUCGAUAACGAACAAAACUCCCAAUAUGUGCGCAUACA
modifications: 2'-F at all pyrimidines
B4: aptamer ID 50 (ssRNA)
RNA: GGGAGAACUUCGACCAGAGUCGAUAACGAACAAAACUCCCAAUAUGUGCGCAUAC
modifications: 2'-F at all pyrimidines
B5: aptamer ID 18 (ssRNA)
RNA: GGGAGAACUUCGCCAGAAGUUUGAAAGAAACCCAAAUAAAGAUGUGCGCAUCA
modifications: 2'-F at all pyrimidines
B6: aptamer ID 58 (mixed)
mixed: GGGAUAAAAAUAGAGUUUGATAAACACCUGUAUTAAAACCC
modifications: 5' cholesterol; 3' idT; 2'-F pyrimidines (except dT at 21,34) and a37,a38; 2'-OMe other purines except 2'-OH at 4,7,30
B7: aptamer ID 59 (mixed)
mixed: B6 mixed with T34U
modifications: 5' cholesterol; 3' idT; 2'-F pyrimidines (except dT at 21 and dC at 41) and a37,a38; 2'-OMe other purines except 2'-OH at 4,7,30
B8: aptamer ID 44 (ssRNA)
RNA: GGGAGAACUUCGACCAGAAGUCGAUAACGAACAAAACUCCCAAAGGAUGUGCGCAUACA
modifications: 2'-F at all pyrimidines
B9: aptamer ID 45 (ssRNA)
RNA: B8 RNA with G45U, G46A
modifications: 2'-F at all pyrimidines
B10: aptamer ID 17 (ssRNA)
RNA: GGGAGAACUUCGCCAGAAGUUUGAAAGAAACCCAAAUUAAAGAUGUGCGCAUCA
modifications: 2'-F at all pyrimidines
B11: aptamer ID 39 (ssRNA)
RNA: GGGAGAACUUCGACCAGAAGUCGAUAACGAACAAAACUCCCAAAGGAAAUGUGCGCAUACA
modifications: 2'-F at all pyrimidines
B12: aptamer ID 41 (ssRNA)
RNA: B11 RNA with A47U
modifications: 2'-F at all pyrimidines
B13: aptamer ID 40 (ssRNA)
RNA: GGGAGAACUUCGACCAGAAGUCGAUAACGAACAAAACUCCCAAAUAUAUGUGCGCAUACA
modifications: 2'-F at all pyrimidines
B14: aptamer ID 42 (ssRNA)
RNA: B13 RNA with A42G, A43G, U45A, A46U, U47A
modifications: 2'-F at all pyrimidines
B15: aptamer ID 51 (ssRNA)
RNA: GGAGAACUUCGACCAGAGUCGAUAACGAACAAAACUCCAAAUAUGUGCGCAUAC
modifications: 2'-F at all pyrimidines
B16: aptamer ID 47 (ssRNA)
RNA: GGGAGAACUUCGACCAGAGUCGAUAACGAACAAAACUCCCAAAUAUGUGCGCAUACA
modifications: 2'-F at all pyrimidines
B17: aptamer ID 46 (ssRNA)
RNA: GGGAGAACUUCGACCAGAAGUCGAUAACGAACAAAACUCCCAAAUAUGUGCGCAUAC
modifications: 2'-F at all pyrimidines
B18: aptamer ID 9 (ssRNA)
RNA: GGGAGAACUUCGACCAGAAGUUUGAAAGAAACCCAAAUUAAAAAGAUGUGCGCAUCA
modifications: 2'-F at all pyrimidines
B19: aptamer ID 16 (ssRNA)
RNA: GGGAGAACUUCGCCAGAAGUUUGAAAGAAACCCAAAUUAAAAAGAUGUGCGCAUCA
modifications: 2'-F at all pyrimidines
B20: aptamer ID 11 (ssRNA)
RNA: GGGAGAACUUCGCCAGAAGUUUGAAAGAAACCCAAAUAAAAAGUAUGUGCGCAUACA
modifications: 2'-F at all pyrimidines
B21: aptamer ID 14 (ssRNA)
RNA: B20 RNA with A36U
modifications: 2'-F at all pyrimidines
B22: aptamer ID 12 (ssRNA)
RNA: B20 RNA with A38U
modifications: 2'-F at all pyrimidines
B23: aptamer ID 23 (ssRNA)
RNA: GGGAGAACUUCGCCAGAAGUUUGAAAGAAACCCAAAUAAGUGUGCGCACA
modifications: 2'-F at all pyrimidines
B24: aptamer ID 26(6) (ssRNA)
RNA: GGGAGACUCGCCAGAGUUGAAAGAAACCCAAAUAAGUGUGCGCAC
modifications: 2'-F pyrimidines; 2'-OMe at 36,38,40,42,44; other purines 2'-OH
B25: aptamer ID 20 (ssRNA)
RNA: GGGAGAACUUCGCCAGAAGUUUGAAAGAAACCCAAAUAAAGUGUGCGCACA
modifications: 2'-F at all pyrimidines
B26: aptamer ID 24 (ssRNA)
RNA: GGGAGAACUUCGCCAGAAGUUUGAAAGAAACCCAAAUAAGUGUGCGCAC
modifications: 2'-F at all pyrimidines
B27: aptamer ID 25 (ssRNA)
RNA: GGGAGACUCGCCAGAGUUGAAAGAAACCCAAAUAAAGUGUGCGCACA
modifications: 2'-F at all pyrimidines
B28: aptamer ID 38 (ssRNA)
RNA: GGGAGAACUUCGACCAGAAGUCGAUAACGAACAAAACUCCCAAAGGAAUAUAUGUGCGCAUAC
modifications: 2'-F at all pyrimidines
B29: aptamer ID 3 (ssRNA)
RNA: GGGAGAACUUCGACCAGAAGUUUGAAAGAAACCCAAAUUAAAGGAACAGUAUGUGCGCAUACAUGGAUCCUCA
modifications: 2'-F at all pyrimidines
B30: aptamer ID 34 (ssRNA)
RNA: GGGAGAACUUCGACCAGAAGUCGAUAACGAACAAAACUCCCAAAGGAAUAUGUGCGCAUACA
modifications: 2'-F at all pyrimidines
B31: aptamer ID 36 (ssRNA)
RNA: B30 RNA with G45A, G46A, A47U
modifications: 2'-F at all pyrimidines
B32: aptamer ID 35 (ssRNA)
RNA: B30 RNA with A47U
modifications: 2'-F at all pyrimidines
B33: aptamer ID 8 (ssRNA)
RNA: GGGAGAACUUCGACCAGAAGUUUGAAAGAAACCCAAAUUAAAGUGAACAGAUGUGCGCAUCA
modifications: 2'-F at all pyrimidines
B34: aptamer ID 54 (ssRNA)
RNA: GGGAGAACUUCGACCAGAAGAUUUGAAAAAAACCCAAAUUAAAGUAUGUGCGCAUACA
modifications: 2'-F at all pyrimidines
B35: aptamer ID 5 (ssRNA)
RNA: GGGAGAACUUCGACCAGAAGUUUGAAAGAAACCCAAAUUAAAAACAGUAUGUGCGCAUACA
modifications: 2'-F at all pyrimidines
B36: aptamer ID 7 (ssRNA)
RNA: B35 RNA with A43G, A44G, C45A
modifications: 2'-F at all pyrimidines
B37: aptamer ID 53 (ssRNA)
RNA: GGGAGAACUUCGACCAGAGUCGAGAGCGAAAGAAACUCCCAAAUAUGUGCGCAUAC
modifications: 2'-F at all pyrimidines
B38: aptamer ID 6 (ssRNA)
RNA: GGGAGAACUUCGACCAGAAGUUUGAAAGAAACCCAAAAAAGUGAACAGUAUGUGCGCAUACA
modifications: 2'-F at all pyrimidines
B39: aptamer ID 52 (ssRNA)
RNA: GGGAGAACUUCGACCAGAAGUUUGAAAAAAACCCAAAUUAAAGUAUGUGCGCAUACA
modifications: 2'-F at all pyrimidines
B40: aptamer ID 37 (ssRNA)
RNA: B11 RNA with A42G, A43G, G45A, G46U, A48U
modifications: 2'-F at all pyrimidines
B41: aptamer ID 2 (ssRNA)
RNA: GGGAGAACUUCGACCAGAAGUUUGAAAGAAACCCAAAUUAAAGUGAAGUAUGUGCGCAUACAUUCCUCA
modifications: 2'-F at all pyrimidines
B42: aptamer ID 31 (ssRNA)
RNA: GGGAGAACUUCGACCAGAAGUCGAUAACGAACAAAACUCCCAAAGGAAUAUAUGUGCGCAUACAUGGAU
modifications: 2'-F at all pyrimidines
B43: aptamer ID 4 (ssRNA)
RNA: GGGAGAACUUCGACCAGAAGUUUGAAAGAAACCCAAAUUAAAGUGAACAGUAUGUGCGCAUACUGGAUCCUCA
modifications: 2'-F at all pyrimidines
B44: aptamer ID 33 (ssRNA)
RNA: GGGAGAACUUCGACCAGAAGUCGAUAACGAACAAAACUCCCAAAGGAAUAUAUGUGCGCAUACAUGGAUCCU
modifications: 2'-F at all pyrimidines

T1 sequence (P01138 122-241, one chain of several): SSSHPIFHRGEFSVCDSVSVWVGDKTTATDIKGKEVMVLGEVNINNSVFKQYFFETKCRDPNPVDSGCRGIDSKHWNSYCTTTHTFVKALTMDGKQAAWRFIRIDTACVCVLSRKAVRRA

For the first data set, the target named is T1, NGF (nerve growth factor) (human, UniProt P01138 P01138:122-241). The data set can be described thus: cell_activity; neurite outgrowth, NGF 1.1 nM; SPR binding. To be noted: tags: amine-coupled to CM5 chip in SPR; soluble in cell assays; chain copies: 2. On the procedure:
(§1) The neurite outgrowth inhibitory activity of the aptamer obtained in Example 1 was evaluated by using Neuroscreen-1 cell, which is a subclone of PC-12 cells.
(§2) The cells (2500 cells per well) were cultured for one day in an RPMI-1640 medium containing 2.5% horse serum and 1.25% fetal bovine serum in a 96 well flat-bottom plate coated with collagen type IV. […] Two days later, the cytoplasm and nuclei were stained using Cellomics Neurite Outgrowth Kit (manufactured by Thermo Scientific), and neurite length per cell was measured by Cellomics ArrayScan VTI (manufactured by Thermo Scientific). With the neurite length per cell obtained by the addition of NGF alone as inhibitory activity 0%, and that of the cell obtained by NGF free culture for 2 days as inhibitory activity 100%, the inhibitory activity of the aptamer was calculated from the neurite length per cell obtained by culturing with the addition of NGF and the aptamer in mixture. When the inhibitory activity was 0% or below, ‘0%’ is indicated.
One may read the IC50 as the point on the concentration scale where inhibition reaches its midpoint. A lower IC50 goes with greater potency. In turn, B1 displayed a half-inhibitory concentration (IC50) of 1.3 nM.

With B2, the IC50 was 1.9 nM.

Take B3: the IC50 was 1.8 nM.

On to B4, for which the IC50 was found to be 2.6 nM.

In turn, B5 yielded an IC50 of less than 10 nM.

Consider B6, for which the IC50 stood at 5.4 nM.

With B7, the half-inhibitory concentration (IC50) came out at 6.9 nM.

As for B8, the IC50 was less than 3 nM.

Take B9: the IC50 was less than 3 nM.

In the case of B10, the IC50 is less than 1 nM.

For the molecule B11, the IC50 is less than 3 nM.

On to B12, for which the IC50 is less than 3 nM.

For the molecule B13, the IC50 is less than 3 nM.

For B14, the IC50 is less than 3 nM.

As to B15, the IC50 was 2.7 nM. That is a single-digit nanomolar value.

On to B16, for which the IC50 amounted to 2.5 nM. This IC50 and that of the molecule before are within 1.5-fold of each other.

In turn, B17 yielded an IC50 of 2.6 nM.

B18 had an IC50 of less than 3 nM.

B19 returned an IC50 of 1.1 nM.

B20 gave an IC50 of 1.5 nM. The IC50 values of the last two molecules are within 1.5-fold of each other.

In turn, B21 showed an IC50 of 1.2 nM.

On to B22, for which the IC50 worked out at 1.4 nM.

The target in the next data set is T1, NGF (nerve growth factor). The data set can be described thus: cell_activity; neurite outgrowth, NGF 1.1 nM; SPR binding; TF-1 IC50 <1.0 nM. To be noted: tags: amine-coupled to CM5 chip in SPR; soluble in cell assays; chain copies: 2. (Surface plasmon resonance follows binding to a sensor surface in real time, without labels.)
As for B23, the IC50 is less than 1 nM.

The molecule B24 returned an IC50 of less than 1 nM.

With B25, the IC50 stood at 1 nM. This lies in the single-digit nanomolar range.

As for B26, the IC50 is less than 1 nM.

As for B27, the IC50 was less than 1 nM.

Another data set deals with T1, NGF (nerve growth factor). The data set is described as follows: cell_activity; neurite outgrowth, NGF 1.1 nM; SPR binding; blocks NGF-TrkA. The conditions noted are these: tags: amine-coupled to CM5 chip in SPR; soluble in cell assays; chain copies: 2. On the procedure:
as §1, §2
With B28, the IC50 was less than 3 nM.

As for B29, the IC50 was less than 3 nM.

B30 gave an IC50 of less than 3 nM.

B31 displayed an IC50 of less than 3 nM.

In turn, B32 returned an IC50 of less than 3 nM.

B33 gave an IC50 of less than 3 nM.

Molecule B34 showed an IC50 of 3 nM. That is a single-digit nanomolar value.

For the molecule B35, the IC50 was less than 3 nM.

B36 came in with an IC50 of less than 3 nM.

In the case of B37, the IC50 came out at 4.7 nM. This lies in the single-digit nanomolar range.

As for B38, the IC50 is less than 3 nM.

Regarding B39, the IC50 turned out to be 5.9 nM.

B40 gave an IC50 of less than 3 nM.

As to B41, the IC50 is less than 3 nM.

Molecule B42 yielded an IC50 of less than 3 nM.

Turning to B43, the IC50 was less than 3 nM.

B44 displayed an IC50 of less than 3 nM.

Source of the values: US20130052176, “APTAMER FOR NGF AND USE THEREOF” (SHIONOGI & CO., LTD, published 2013).
